Data taken from PMC6509496, “Crystal structure of the TreS:Pep2 complex, initiating α-glucan synthesis in the GlgE pathway of mycobacteria” (The Journal of Biological Chemistry, 2019).

Tested on: T1, Nc1ncnc2c1ncn2[C@@H]1O[C@H](COP(=O)(O)OP(=O)(O)OP(=O)(O)O)[C@@H](O)[C@H]1O
T1 construct: full length (441 residues), N-terminal His6 tag (pET28a), E. coli BL21(DE3); monomer
Assay: coupled pyruvate kinase / lactate dehydrogenase assay, NADH depletion
Type: biochemical, Mycolicibacterium smegmatis
Details: 20 mM maltose, 10 mM MgCl2, 50 mM sodium phosphate pH 7.5, 300 mM NaCl, 10% glycerol, no TreS
Source text: coupled pyruvate kinase / lactate dehydrogenase assay, NADH depletion on Msm Pep2 (M. smegmatis maltokinase, MsPep2)

With “Msm Pep2 (M. smegmatis maltokinase, MsPep2) (Mycolicibacterium smegmatis MC2 155)” the Km was 0.076 ± 0.007 mM.
